Data as given in article PMC12715529, “Functional D- and L‑Naphthalenediimide-Peptides: Microwave-Driven Synthesis, Supramolecular Aggregation, and Multiphoton Fluorescence Lifetime Imaging Microscopy in Living Cells” (ACS Bio & Med Chem Au, 2025).

Key:
[1] = MTT and crystal violet cell viability assays; assay type: cell-based; details: human, PC-3 cells, MTT and crystal violet assays, up to 72 h observation, read-out: IC50 (cytotoxicity)
Experimental: (§1) Subsequently, cells were washed three times with PBS, and 3-(4,5-dimethylthiazol-2-yl)-2,5- diphenyltetrazolium bromide (MTT) was added (0.5 mg/mL in serum-free medium (SFM)), followed by a 2 h incubation. After aspiration to remove the serum-free medium, 100 μL of DMSO was added to solubilize the precipitated formazan species, and 96-well plates were read by an ELISA plate reader, Molecular Devices Versa Max (BN02877). The absorption wavelength was 570 nm, and a 690 nm wavelength was used as a reference.

[2] = test system: cancerous cell lines (PC-3); experiment: MTT and crystal violet cell viability assays; assay type: cell-based; details: at concentrations used for imaging, over 72 h of observations
Experimental: as §1

[3] = Two-photon TCSPC point decays in solution (aggregation behaviour); assay type: physicochemical; details: for a1 (amplitude of τ1) / a2 (amplitude of τ2) / τ2 (long-lifetime component) / τ1 (short-lifetime component): two-photon TCSPC 910 nm
Excerpt: Prior to the cellular studies by FLIM, lifetime distribution decays of probes 3 (both enantiomers), 4 (both enantiomers), and L -6 were studied by TCSPC in different concentrations and solvent systems. […] The main fluorescence lifetime parameters obtained by TCSPC in the solution phase are summarized in Table , and further details are given in Figures S105–S133 and Tables S2–S4. The goodness of fit of the data points obtained is represented by the Chi–square parameter, χ^2; τ1 is the short-lifetime component; τ2 is the long-lifetime component; and the parameters a1 and a2 represent the amplitude of the components.

[4] = FE-SEM and Airyscan confocal imaging of dried films (aggregation morphology); assay type: physicochemical; details: dried powder or freeze-dried 1 mg/mL MeCN/H2O (1:1) or DMSO solutions
Experimental: To further investigate the aggregation behavior, we examined the surface morphologies of the isolated conjugates in the solid state at the micrometer scale using field emission scanning electron microscopy (FE-SEM). This analysis aimed to determine whether the aggregation properties of these peptide-based compounds influence their fluorescence emission. The FE SEM micrographs of the D- and L-enantiomers of 3 and 4 were recorded from dried powder after purification or after freeze-drying of 1 mg/mL solutions deposited in either MeCN/H2O (1:1) or DMSO solutions. […] Confocal laser scanning fluorescence microscopy was performed for the thin films deposited on glass-bottomed borosilicate slides using imaging Petri dishes. Micrographs were acquired using Airyscan detection for L -3 (a1–e1), L -4 (a2–e2), D -3 (a3–e3), D -4 (a4–d4), and L -6 (a5–d5) where these images were recorded following overnight freeze-drying of films deposited from DMSO (Figures and S67). […] This is consistent with our observations from solution excitation–emission maps (Figures and S57–S63) and further points to the overall ability of these aggregates to show fluorescence emission due to possible stacking and excited-state electron and energy dynamics. […] Specifically, emission was detected in the blue (λem = 420–480 nm), green (λem = 495–550 nm), and red (λem = 555–620 nm) channels. […]

PC-3 cells = details: 48 h
Experimental: After splitting the cells, cells (3 × 10^3 cells per well) were seeded on a sterile 96-well plate and incubated for 48 h to let the cells adhere to the plates. The compound of interest was subsequently loaded at different concentrations into the wells and incubated for a further 48 h. The concentrations used ranged between 250 μM or 0.01 mg/mL and 1 nM or 1 ng/mL (1% DMSO with compound, 99% RPMI (10% FCS) for PC-3. Subsequently, the medium from the plates was carefully aspirated so as not to disturb the colonies, and the plates were gently washed with PBS. Next, a mixture of methanol/PBS (1:1) was added in a sufficient volume to cover the colonies, and it was left for 15 min. After this time, it was removed, and 100% methanol was added for a further 15 min. The methanol was then removed, and 0.5% crystal violet solution (in 20% methanol and 80% water) was added and left to allow sufficient staining. The crystal violet solution was removed by carefully rinsing the cell plates with an indirect flow of tap water. The plates were inverted and left on the bench at room temperature to dry the water. Methanol (200 μL) was added to each well, and the plate was incubated with its lid on for 20 min at room temperature on a bench rocker with a frequency of 20 oscillations per minute. The 96-well plates were then read with an ELISA plate reader, Molecular Devices Versa Max (BN02877). […]

[5] = molecular target: T1, GRP receptors in PC-3 cells (Homo sapiens, UniProt P30550); experiment: Blocking experiment with L-[7–13]BBN, confocal imaging; assay type: cell-based; details: PC-3 pre-incubated with 1 mM L-[7–13]BBN, 37 °C, 20 min, washed, then conjugate 20 min
T1 construct: This also supports the targeted uptake directed by the GRP receptors in PC-3 cells; endogenous in cells; host or cells: PC-3 cells (ATCC)
T1 sequence (P30550 whole entry): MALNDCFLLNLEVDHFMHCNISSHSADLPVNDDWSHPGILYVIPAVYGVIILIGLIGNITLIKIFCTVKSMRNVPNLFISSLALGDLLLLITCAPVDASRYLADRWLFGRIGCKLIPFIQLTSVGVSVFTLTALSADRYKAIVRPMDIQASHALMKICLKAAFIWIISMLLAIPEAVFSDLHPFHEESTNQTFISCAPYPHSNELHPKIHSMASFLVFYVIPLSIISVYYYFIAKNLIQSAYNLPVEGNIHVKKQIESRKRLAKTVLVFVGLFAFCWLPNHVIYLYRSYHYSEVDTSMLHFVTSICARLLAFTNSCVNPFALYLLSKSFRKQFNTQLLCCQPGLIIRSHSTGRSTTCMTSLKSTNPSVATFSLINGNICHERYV
Experimental: Compound L -6 emits in the green and red channels (500–550 and 570–750 nm, respectively) when excited at 488 nm. […] In addition, the fluorescence emissions in vitro are stronger than the observed fluorescence emission in solution. […] This also supports the targeted uptake directed by the GRP receptors in PC-3 cells interplayed with BODIPY-driven cellular localization. To further probe this observation, a blocking experiment by confocal imaging was conducted (Figures S103–S104), whereby PC-3 cells were first incubated in the presence of a high concentration of L-[7–13]-BBN (1 mM) at 37 °C for 20 min. This peptide is only weakly fluorescent, and on this time scale (and up to 18 h of incubation time), confocal imaging cannot show distinguishable emission, to describe the uptake for L-[7,13]-BBN alone by this method (Figure S87). After the standard 20 min pretreatment time, the cells were washed with PBS and then the serum-free medium (SFM) was replaced. […] In the case of L-6, the observed maximum fluorescence intensity is distributed over the exterior of the cell, with points of aggregation visible around the membrane. […]
Figure S103. […] (D) A comparison of the mean fluorescence intensity estimated from confocal imaging experiments of the standard blocking assays in living PC-3 cells (Figure S103), under 20 min incubation, 37 °C, ex 488 nm. […]

[6] = DMSO, 0.01 mM, double-exponential fit, aggregation indicator

SMILES | IC50 at 48 h [1] | cytotoxicity in words [2] | a1 (amplitude of τ1) ([3]; DMSO, 0.01 mM) | a2 (amplitude of τ2) ([3]; DMSO, 0.01 mM) | τ2 (long-lifetime component) ([3]; DMSO, 0.01 mM) | τ1 (short-lifetime component) [3, 6] | a1 (amplitude of τ1) ([3]; DMSO, 0.1 mM) | a2 (amplitude of τ2) ([3]; DMSO, 0.1 mM) | τ1 (short-lifetime component) ([3]; DMSO, 0.1 mM) | τ2 (long-lifetime component) ([3]; DMSO, 0.1 mM) | a1 (amplitude of τ1) ([3]; DMSO, 1 mM) | a2 (amplitude of τ2) ([3]; DMSO, 1 mM) | τ1 (short-lifetime component) ([3]; DMSO, 1 mM) | τ2 (long-lifetime component) ([3]; DMSO, 1 mM) | a1 (amplitude of τ1) ([3]; DMSO/H2O (1:1), 0.025 mM) | a2 (amplitude of τ2) ([3]; DMSO/H2O (1:1), 0.025 mM) | a1 (amplitude of τ1) ([3]; DMSO/H2O (1:1), 2.5 mM) | a2 (amplitude of τ2) ([3]; DMSO/H2O (1:1), 2.5 mM) | τ1 (short-lifetime component) ([3]; DMSO/H2O (1:1), 2.5 mM) | τ2 (long-lifetime component) ([3]; DMSO/H2O (1:1), 2.5 mM) | also measured
CC(C)C[C@H](NC(=O)[C@H](Cc1c[nH]cn1)NC(=O)CNC(=O)[C@@H](NC(=O)[C@H](C)NC(=O)[C@H](Cc1c[nH]c2ccccc12)NC(=O)[C@H](CCC(N)=O)NC(=O)[C@H](Cc1ccc(I)cc1)N1C(=O)c2ccc3c4c(ccc(c24)C1=O)C(=O)N([C@@H](Cc1ccc(I)cc1)C(=O)N[C@@H](CCC(N)=O)C(=O)N[C@@H](Cc1c[nH]c2ccccc12)C(=O)N[C@@H](C)C(=O)N[C@H](C(=O)NCC(=O)N[C@@H](Cc1c[nH]cn1)C(=O)N[C@@H](CC(C)C)C(N)=O)C(C)C)C3=O)C(C)C)C(N)=O [L-4] | > 100 µM | nontoxic | 75% | 25% | 4.76 ns | 0.51 ns | 79% | 21% | 0.49 ns | 5.45 ns | 77% | 23% | 0.48 ns | 4.29 ns | 84% | 16% | 86% | 14% | 0.26 ns | 4.97 ns | τ1 (short-lifetime component) ([3]; DMSO/H2O (1:1), 0.025 mM): 0.48 ns; τ2 (long-lifetime component) ([3]; DMSO/H2O (1:1), 0.025 mM): 9.57 ns; a1 (amplitude of τ1) ([3]; DMSO/H2O (1:1), 0.25 mM): 83%; a2 (amplitude of τ2) ([3]; DMSO/H2O (1:1), 0.25 mM): 17%; τ1 (short-lifetime component) ([3]; DMSO/H2O (1:1), 0.25 mM): 0.40 ns; τ2 (long-lifetime component) ([3]; DMSO/H2O (1:1), 0.25 mM): 3.12 ns; aggregate morphology [4]: granular and globular morphology; IC50 (PC-3 cells): > 100 µM
CC1=CC(C)=[N+]2C1=C(c1ccc(C(=O)NCCN3C(=O)c4ccc5c6c(ccc(c46)C3=O)C(=O)N([C@@H](CCC(N)=O)C(=O)N[C@@H](Cc3c[nH]c4ccccc34)C(=O)N[C@@H](C)C(=O)N[C@H](C(=O)NCC(=O)N[C@@H](Cc3c[nH]cn3)C(=O)N[C@@H](CC(C)C)C(N)=O)C(C)C)C5=O)cc1)c1c(C)cc(C)n1[B-]2(F)F [L-6] | > 100 µM | nontoxic | 68% | 32% | 3.34 ns | 0.14 ns | 80% | 20% | 0.14 ns | 2.64 ns | 66% | 34% | 0.14 ns | 1.67 ns |  |  | 65% | 35% | 0.15 ns | 2.25 ns | uptake after pre-blocking with L-[7–13]BBN [5]: significant decrease of the uptake efficiency in pretreated cells; uptake after pre-blocking with L-[7–13]BBN ([5]; listed as L -6): significantly lesser extent than in the nonblocked experiment; τ1 relative to BODIPY-linker precursor 5 ([3]; TCSPC in solution, assigned to self-aggregation): 10 fold lower; τ1 (approximate) ([3]; both DMSO and DMSO/H2O solutions, TCSPC): ~0.1 ns
CC(C)C[C@H](NC(=O)[C@H](Cc1c[nH]cn1)NC(=O)CNC(=O)[C@@H](NC(=O)[C@H](C)NC(=O)[C@H](Cc1c[nH]c2ccccc12)NC(=O)[C@H](CCC(N)=O)NC(=O)[C@H](Cc1ccc(I)cc1)N1C(=O)c2ccc3c4c(ccc(c24)C1=O)C(=O)N([C@@H](Cc1ccc(I)cc1)C(=O)ON1C(=O)CCC1=O)C3=O)C(C)C)C(N)=O [L-3] | > 100 µM | nontoxic | 62% | 38% | 7.35 ns | 0.84 ns | 62% | 38% | 0.57 ns |  | 63% | 37% | 0.38 ns | 2.54 ns | 82% | 18% | 77% | 23% | 0.31 ns | 3.45 ns | τ1 (short-lifetime component) ([3]; DMSO/H2O (1:1), 0.025 mM): 0.37 ns; τ2 (long-lifetime component) ([3]; DMSO/H2O (1:1), 0.025 mM): 10.01 ns; a1 (amplitude of τ1) ([3]; DMSO/H2O (1:1), 0.25 mM): 81%; a2 (amplitude of τ2) ([3]; DMSO/H2O (1:1), 0.25 mM): 19%; τ1 (short-lifetime component) ([3]; DMSO/H2O (1:1), 0.25 mM): 0.38 ns; τ2 (long-lifetime component) ([3]; DMSO/H2O (1:1), 0.25 mM): 9.87 ns; IC50 (PC-3 cells): > 100 µM
